Patent US20140248254A1, “THE USE OF ACHE AS NUCLEASE” (priority 2011, published 2014)

What was measured:
[1] = test system: plasmid DNA (pEGFP-C1 plasmid); assay: In vitro DNase activity: cleavage of plasmid DNA by purified protein; assay type: biochemical; settings: for cleavage of plasmid DNA from supercoil (SC) into Nick and Linear structures: cell free system, 37° C.
Experimental: D. The results of 1% agarose electrophoresis before which pEGFP-C1 plasmid DNA and Homo or Mus AChE protein (0, 0.5, 1 and 2 μg) were coincubated for 6 h. EcoR was used to indicate linear DNA. MK indicated molecular weight marker.
E. the plasmid splitting with increasing time of the incubation of pEGFP-C1 plasmid DNA (150 ng) and Homo or Mus AChE protein (1 μg)). The above experiment was repeated for 3 times.
G. Commercial AChE isolated from Ee1 was incubated in different doses with plasmid DNA, and two bovine serum albumins (BSA1, BSA2) purchased from different companies were used as control at the same time; after being incubated for 5 h, they were subjected to DNA gel electrophoresis.
H. Commercial AChE isolated from Ee1 was incubated with plasmid DNA for different durations, and two bovine serum albumins (BSA1, BSA2) purchased from different companies were used as control at the same time. They were then subjected to DNA gel electrophoresis.
B. The influence of pH value on AChE nuclease activity. Plasmid DNA was incubated with Homo AChE protein under different pH conditions for 3 h.
Purified plasmid DNA was used as substrate for detection. In the experiment of cleaving of plasmid DNA, 0.15 μg of plasmid DNA with a transfection-grade purity (pEGFP-C1 plasmid, Clotech) was added to 10 μl buffer system containing (5.0 mM Tris-HCl, PH 7.5; 2.5 mM CaCl2; 5.0 mM MgCl2). 1 μg (or an amount indicated in Examples) of purified AChE proteins of human or mouse origin (AChE 1-547AA corresponding to human; AChE1-548AA corresponding to mouse) was further added, and incubated in 37° C. Sampling at 6 h (or timepoints indicated in Examples).

HeLa cell = assay: Screening Method 3: DNA breakage (Tunnel) in fixed, permeabilized HeLa cells treated with protein; assay type: cell-based, human; settings: AChE protein 1 μg/μl, 1-2 hr 37° C., compared with BSA group
Experimental: HeLa cells were plated in 96-well plate with a 60% density, and after complete adherence, the cells were fixed with 4% PFA for 10 min, and permeabilized with 0.1% sodium citrate +0.1% Triton X-100 for 10 min, for twice. After PBS washing, cells were divided into five groups, as follows:
AChE protein group: HeLa cell, treated with AChE protein (1 μg/μl) after fixation and permeabilization treatment;
Cells of each group were incubated for 1-2 hr in 37° C.; Washed twice with PBS, and fixed with 4% PFA for 10 min. Tunnel reagent was added, incubated for 1 hr in 37° C.; and then washed three times with PBS, stained with Hoechest. Observation was performed by fluorescence microscope.

DNA = assay: Dissociation constant between protein and DNA (Bio Core T100 assay); assay type: binding
Source text: AChE protein and DNase I presented similar binding curves.
Meanwhile, the inventors detected environment characteristics in which AChE cleaving DNA. DNase activity of AChE was Mg2+-dependent, while Ca2+ could only play a weak supporting role (FIG. 5a). In a relatively wide pH range of pH 7.0-10.0 (similar to in vivo pH environment during apoptosis), AChE can fully play its function of cleaving DNA (FIG. 5b).

| Molecule | cleavage of plasmid DNA from supercoil (SC) into Nick and Linear structures [1] | DNA cleaving activity at pH 5-6 ([1]; Homo AChE protein, pH 5-6, 3 h) | DNA cleaving activity at pH 7-10 ([1]; Homo AChE protein, pH 7-10, 3 h) | intracellular DNA breakage (HeLa cell) | affinity for DNA relative to that of DNase I (DNA; from Kd values) | Kd (DNA; software analysis of binding curves) [µM] |
| --- | --- | --- | --- | --- | --- | --- |
| Mus AChE (protein) EGREDPQLLVRVRGGQLRGIRLKAPGGPVSAFLGIPFAEPPVGSRRFMPPEPKRPWSGVLDATTFQNVCYQYVDTLYPGFEGTEMWNPNRELSEDCLYLNVWTPYPRPASPTPVLIWIYGGGFYSGAASLDVYDGRFLAQVEGAVLVSMNYRVGTFGFLALPGSREAPGNVGLLDQRLALQWVQENIAAFGGDPMSVTLFGESAGAASVGMHILSLPSRSLFHRAVLQSGTPNGPWATVSAGEARRRATLLARLVGCPPGGAGGNDTELIACLRTRPAQDLVDHEWHVLPQESIFRFSFVPVVDGDFLSDTPEALINTGDFQDLQVLVGVVKDEGSYFLVYGVPGFSKDNESLISRAQFLAGVRIGVPQASDLAAEAVVLHYTDWLHPEDPTHLRDAMSAVVGDHNVVCPVAQLAGRLAAQGARVYAYIFEHRASTLTWPLWMGVPHGYEIEFIFGLPLDPSLNYTTEERIFAQRLMKYWTNFARTGDPNDPRDSKSPQWPPYTTAAQQYVSLNLKP | effectively cleave plasmid DNA |  |  |  |  |  |
| Homo AChE (protein) EGREDAELLVTVRGGRLRGIRLKTPGGPVSAFLGIPFAEPPMGPRRFLPPEPKQPWSGVVDATTFQSVCYQYVDTLYPGFEGTEMWNPNRELSEDCLYLNVWTPYPRPTSPTPVLVWIYGGGFYSGASSLDVYDGRFLVQAERTVLVSMNYRVGAFGFLALPGSREAPGNVGLLDQRLALQWVQENVAAFGGDPTSVTLFGESAGAASVGMHLLSPPSRGLFHRAVLQSGAPNGPWATVGMGEARRRATQLAHLVGCPPGGTGGNDTELVACLRTRPAQVLVNHEWHVLPQESVFRFSFVPVVDGDFLSDTPEALINAGDFHGLQVLVGVVKDEGSYFLVYGAPGFSKDNESLISRAEFLAGVRVGVPQVSDLAAEAVVLHYTDWLHPEDPARLREALSDVVGDHNVVCPVAQLAGRLAAQGARVYAYVFEHRASTLSWPLWMGVPHGYEIEFIFGIPLDPSRNYTAEEKIFAQRLMRYWANFARTGDPNEPRDPKAPQWPPYTAGAQQYVSLDLR | effectively cleave plasmid DNA |  |  |  |  |  |
| AChE (protein, listed as Homo Sapiens) MRPPQCLLHTPSLASPLLLLLLWLLGGGVGAEGREDAELLVTVRGGRLRGIRLKTPGGPVSAFLGIPFAEPPMGPRRFLPPEPKQPWSGVVDATTFQSVCYQYVDTLYPGFEGTEMWNPNRELSEDCLYLNVWTPYPRPTSPTPVLVWIYGGGFYSGASSLDVYDGRFLVQAERTVLVSMNYRVGAFGFLALPGSREAPGNVGLLDQRLALQWVQENVAAFGGDPTSVTLFGESAGAASVGMHLLSPPSRGLFHRAVLQSGAPNGPWATVGMGEARRRATQLAHLVGCPPGGTGGNDTELVACLRTRPAQVLVNHEWHVLPQESVFRFSFVPVVDGDFLSDTPEALINAGDFHGLQVLVGVVKDEGSYFLVYGAPGFSKDNESLISRAEFLAGVRVGVPQVSDLAAEAVVLHYTDWLHPEDPARLREALSDVVGDHNVVCPVAQLAGRLAAQGARVYAYVFEHRASTLSWPLWMGVPHGYEIEFIFGIPLDPSRNYTAEEKIFAQRLMRYWANFARTGDPNEPRDPKAPQWPPYTAGAQQYVSLDLRPLEVRRGLRAQACAFWNRFLPKLLSATDTLDEAERQWKAEFHRWSSYMVHWKNQFDHYSKQDRCSDL |  | reduced slightly | can effectively function to cleave DNA | obvious breakage | about 74% | 1.53 |
